Where no end group is shown, it is not given here.

The text below walks through data of PMC4525147.

In test [1] the target is gp41, the Xenopus laevis ZP3, of the vitelline envelope (Xenopus laevis).

In the case of SFSCNQKNK (also: biotin) [dcp11, dicalcin-derived peptide], in test [1], the Kd of the concentration dependence of the inhibition of in vitro fertilization was found to be 33 nM and the in vitro fertilization rate after pretreatment of the VE with the peptide at 4 μM, normalised to control was 25 % of control.
With AALCKL (also: biotin) [dcp15, dicalcin-derived peptide], in test [1], the Kd of the concentration dependence of the inhibition of in vitro fertilization came out at 46 nM and the in vitro fertilization rate after pretreatment of the VE with the peptide at 4 μM, normalised to control was 32 % of control.
RYEIINQNGCLVDGKLDDSSSAF (also: biotin) [gpp2, gp41-derived peptide]: in the test with dicalcin (wild type), the in vitro fertilization rate after preincubation of the VE with gpp2 (concentration series, highest at 4 μM), normalised to control is 132 % of control.
